Sequences and labels used below:
B1: BI 655067 (VH 05-Vk65 IgG1) (antibody, V domains shown)
VH: QVQLVQSGAEVKKPGSSVKVSCKASGFTFTDQTIHWVRQAPGQGLEWMGYIYPRDDSPKYNENFKGKVTLTADKSTSTAYMELSSLRSEDTAVYYCAIPDRSGYAWFIYWGQGTLVTVSS
VL: DIQMTQSPSSLSASVGDRVTITCKASRDVAIAVAWYQQKPGKVPKLLLFWASTRHTGVPDRFSGSGSGTDFTLTISSLQPEDLADYYCHQYSSYPFTFGQGTKLEIK
B2: BI 655068 (VH 02-Vk65 IgG1) (antibody, V domains shown)
VH: B1 VH with F27Y, V37M, M48I, L70I
VL: B1 VL
B3: BI 655069 (VH 05-Vk66 IgG1) (antibody, V domains shown)
VH: B1 VH
VL: B1 VL with L48I, F49Y, D60S, G68R, L83V, Y87F, Q100S
B4: BI 655066 (VH 02-Vk66 IgG1) (antibody, V domains shown)
VH: B1 VH with F27Y, V37M, M48I, L70I
VL: B1 VL with L48I, F49Y, D60S, G68R, L83V, Y87F, Q100S
B5: 26F7 (antibody, V domains shown)
VH: EVQLQQSGPELVKPGASVKISCKASGYTFTDYYMNWVRQSHGESLEWIGDFNHNNDVITYNPKFKGKVTLTVEKSSTTAYMELRSLSSEDSAVYYCARGLRGYYAMDYWGQGTSVTVSS
VL: DIVLTQSPASLAVSLGQRATISCRASKSVRFSDYFYMHWYQQKPGQPPKLLIYLASNLESGVPARFSGSGSGTDFTLNIHPVEEEDAATYYCQNSRELPYTFGGGTKLEIK
B6: 18E5 (antibody, V domains shown)
VH: EVQLQQSGPELVKPGAAVKMSCKASGYTFTRYLIHWVKQKPGQGLEWIGYINPYNDGTKYNEKFKGKATLTSDKSSSTAYMELSSLTSEDSAVYYCTSNWDLDYWGQGTTLTVSS
VL: DIVMTQSPATLSVTPGDRVSLSCRASQSISDYLYWYQQKSHESPRLLIKFASQSISGIPSRFTGSGSGSDFTLSIDSVEPDDVGVFFCQNGHSFPFTFGGGTKLEIK
B7: 15C11 (antibody, V domains shown)
VH: EVQLQQSGPVLVKPGASVKMSCKASGYTFTDYYMNWVKQSHGKSLEWIGVIIPYNGGTSYNQKFKGKATLTVDKSSSTAYMELNSLTSEDSAVYYCARDGHRWYFDVWGTGTTVTVSS
VL: DVVMTQTPLSLPVSLGDQASISCRSSQSLVHSNGNTYLHWYLQKPGQSPKLLIYKVSNRFSGVPDRFSGSGSGTDFTLKINRVEAEDLGVYFCSQSTHVPYTFGGGTQLEIK
B8: 34G3 (antibody, V domains shown)
VH: EFQLQQSGPELVKPGASVKISCKASGYSFTDYNMNWVKQSKGKSLEWIGVIIPNYGFTSYNQNFKGKATLTVDQSSSTAHMQLNSVTSEDSAVYYCVRDGGILLWYLDVWGTGTTVTVSS
VL: B7 VL with N81S, Q108K, K112N
B9: mouse 6B8 (antibody, V domains shown)
VH: QVQLQQSDAELVKPGTSVKTSCKISGNTFTDQTIHWMKQRPEQGLEWIGYIYPRDDSPKYNENFKGKATLTADKSSSTAYMQLNSLTSEDSAVYFCAIPDRSGYAWFIYWGQGTLVTVSS
VL: DIVMTQSHKFLSTSVGDRVTITCKASRDVAIAVAWYQQKPGQSPKLLLFWASTRHTGVPDRFTGSGSRTDFTLTISNVQSEDLADYFCHQYSSYPFTFGSGTKLEIK
B10: BI 655066, CHO derived (antibody, V domains shown)
VH: B1 VH with F27Y, V37M, M48I, L70I
VL: B1 VL with L48I, F49Y, D60S, G68R, L83V, Y87F, Q100S
B11: BI 655066, NS0 derived (human IgG1 Fc L234A, L235A) (antibody, V domains shown)
VH: B1 VH with F27Y, V37M, M48I, L70I
VL: B1 VL with L48I, F49Y, D60S, G68R, L83V, Y87F, Q100S
B12: recombinant chimeric 6B8 (antibody, V domains shown)
VH: B9 VH
VL: B9 VL
B13: VH 65-Vk78 IgG1 (antibody, V domains shown)
VH: B1 VH with F27G, K67R, Y95F, I98R
VL: B1 VL with G68R, Q100S
B14: VH 65-Vk66 IgG1 (antibody, V domains shown)
VH: B1 VH with F27G, K67R, Y95F, I98R
VL: B1 VL with L48I, F49Y, D60S, G68R, L83V, Y87F, Q100S
B15: VH 36-Vk65 IgG1 (antibody, V domains shown)
VH: B1 VH with V20T, F27G, A40R, K67R, L70I
VL: B1 VL
B16: VH 36-Vk78 IgG1 (antibody, V domains shown)
VH: B1 VH with V20T, F27G, A40R, K67R, L70I
VL: B1 VL with G68R, Q100S
B17: VH 02-Vk78 IgG1 (antibody, V domains shown)
VH: B1 VH with F27Y, V37M, M48I, L70I
VL: B1 VL with G68R, Q100S
B18: VH 36-Vk66 IgG1 (antibody, V domains shown)
VH: B1 VH with V20T, F27G, A40R, K67R, L70I
VL: B1 VL with L48I, F49Y, D60S, G68R, L83V, Y87F, Q100S
B19: VH 65-Vk65 IgG1 (antibody, V domains shown)
VH: B1 VH with F27G, K67R, Y95F, I98R
VL: B1 VL

The text below walks through data of paper PMC4622456 (mAbs, 2015).

Numbering of substitutions follows the chain as printed. Names and notes keep the numbering of the source.

The first test addresses recombinant cynomolgus IL23 (Macaca fascicularis, UniProt H6WS56;H6WS55). Put plainly: SPR. Background: Surface plasmon resonance follows binding to a sensor surface in real time, without labels.
As for B1, the dissociation constant (Kd) (usually the free concentration of one partner at which half of the binding sites on the other are occupied at equilibrium, for simple one-to-one binding) is < 0.01 nM.

Turning to B2, the Kd is < 0.01 nM.

Take B3: the dissociation constant (Kd) turned out to be 0.016 nM.

As for B4, the Kd was < 0.01 nM.

The target of the next test is recombinant mouse IL23 (Mus musculus, UniProt Q9EQ14;P43432). Put plainly: SPR.
Chain of recombinant mouse IL23 (Q9EQ14 22-196, chain 1 of 2): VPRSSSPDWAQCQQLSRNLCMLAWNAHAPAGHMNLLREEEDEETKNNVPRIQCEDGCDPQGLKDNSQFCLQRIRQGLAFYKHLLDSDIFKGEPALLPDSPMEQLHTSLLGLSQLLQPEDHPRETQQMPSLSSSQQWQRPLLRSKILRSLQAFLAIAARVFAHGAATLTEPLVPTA
Chain of recombinant mouse IL23 (P43432 23-335, chain 2 of 2): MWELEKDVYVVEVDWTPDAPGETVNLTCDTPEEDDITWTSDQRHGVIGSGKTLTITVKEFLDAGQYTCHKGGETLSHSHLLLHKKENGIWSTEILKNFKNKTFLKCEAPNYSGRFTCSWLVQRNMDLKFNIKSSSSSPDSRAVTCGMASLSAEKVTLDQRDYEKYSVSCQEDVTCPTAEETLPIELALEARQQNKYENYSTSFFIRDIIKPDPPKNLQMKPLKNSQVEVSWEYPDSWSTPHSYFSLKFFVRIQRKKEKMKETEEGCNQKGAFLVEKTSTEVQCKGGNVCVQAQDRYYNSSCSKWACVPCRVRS
B1: the binding result is reported as “no binding (tested: 1.2 μM)”.

Consider B2, for which the binding result was “no binding (tested: 1.2 μM)”.

With B3, the binding result is given as “no binding (tested: 1.2 μM)”.

With B4, the binding result is given as “no binding (tested: 1.2 μM)”.

In the next test the target is recombinant rat IL23 (Rattus norvegicus, UniProt Q91Z84;Q9R278). Put plainly: SPR.
Take B1: the binding result is recorded as “no binding (tested: 1.2 μM)”.

For B2, the binding result is listed as “no binding (tested: 1.2 μM)”.

As for B3, the binding result is listed as “no binding (tested: 1.2 μM)”.

With B4, the binding result is “no binding (tested: 1.2 μM)”.

The target of another test is T1, recombinant human IL23 (human, UniProt Q9NPF7;P29460). As to the kind of experiment: BLI. On the technique in general: Biolayer interferometry detects binding as a change in optical thickness at a sensor tip.
T1 sequence (Q9NPF7 20-189, chain 1 of 2): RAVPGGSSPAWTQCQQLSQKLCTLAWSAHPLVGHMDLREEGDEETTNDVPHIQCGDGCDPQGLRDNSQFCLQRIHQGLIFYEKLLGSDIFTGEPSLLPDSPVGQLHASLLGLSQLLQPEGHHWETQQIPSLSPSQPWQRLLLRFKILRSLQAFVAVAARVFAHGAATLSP
T1 sequence (P29460 23-328, chain 2 of 2): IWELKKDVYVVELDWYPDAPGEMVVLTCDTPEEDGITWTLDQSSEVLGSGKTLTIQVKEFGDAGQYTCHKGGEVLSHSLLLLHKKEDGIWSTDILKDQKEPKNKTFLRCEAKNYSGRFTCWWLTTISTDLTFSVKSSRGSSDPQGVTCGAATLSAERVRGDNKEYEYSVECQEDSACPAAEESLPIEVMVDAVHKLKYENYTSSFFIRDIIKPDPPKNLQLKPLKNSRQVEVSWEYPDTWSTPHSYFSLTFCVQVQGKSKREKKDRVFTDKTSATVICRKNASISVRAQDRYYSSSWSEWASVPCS
Take B5: the Kd stood at 0.028 nM.

As for B6, the Kd was < 0.01 nM.

As to B7, the Kd is 0.026 nM.

As to B8, the Kd is 0.033 nM.

The target in another test is T1, recombinant human IL23. As to the kind of experiment: cell-based or functional assay.
In the case of B5, the “Inhibition of IL23 induced IL17 production in mouse splenocytes (IC50, pM)” value (shortened to “Inhibition”) was determined as 9 pM.

Consider B9, for which the “Inhibition” value amounted to 8 pM.

Turning to B6, the “Inhibition” value was < 13 pM.

On to B7, for which the “Inhibition” value was determined as 197 pM.

As to B8, the “Inhibition” value was 8 pM.

Another test addresses T1, recombinant human IL23. Put plainly: BLI. The source holds these as a separate data set.
As to B1, the “kon(serum)/kon(buffer)” value was found to be 1.2.

Consider B2, for which the “kon(serum)/kon(buffer)” value came out at 1.

As to B3, the “kon(serum)/kon(buffer)” value is 1.2.

For the molecule B4, the “kon(serum)/kon(buffer)” value is 1.2.

The next test deals with T1, recombinant human IL23. As to the kind of experiment: SPR.
Regarding B10, the Kd is < 0.01 nM.

Regarding B11, the Kd is < 0.01 nM.

The next test deals with T1, recombinant human IL23. Put plainly: SPR. The source holds these as a separate data set.
For the molecule B9, the Kd worked out at 0.025 nM.

As to B12, the Kd is < 0.01 nM.

In the next test the target is T1, recombinant human IL23. As to the kind of experiment: SPR. The source holds these as a separate data set.
In the case of B1, the Kd is < 0.01 nM.

In the case of B2, the Kd is 0.015 nM.

For the molecule B13, the Kd is < 0.01 nM.

On to B14, for which the Kd was < 0.01 nM.

Regarding B15, the Kd came to 0.096 nM.

B3: the dissociation constant (Kd) came out at 0.036 nM.

For B16, the Kd is < 0.01 nM.

Consider B17, for which the Kd was < 0.01 nM.

B4: the Kd was < 0.01 nM.

For the molecule B18, the Kd is < 0.01 nM.

With B19, the Kd was found to be 0.107 nM.
